Substrate in the data set: CC1=CC(=O)[C@@H]2c3cc4cccc(O)c4c(O)c3C(=O)C[C@]2(O)C1
In words: HPLC of dehydrorabelomycin formation. To be noted: 2 mM NADPH, 50 mM phosphate pH 7.0, 30 °C. In kind it is biochemical, Micromonospora rosaria.

B1: FlsO2 (Micromonospora rosaria) (protein)
chain: MDTDVIVVGAGPTGLMLAGELRLGGARVVLVERLAEPTGQSRGLGFTARAMETLDQRGLLPRFGELETSPRGHFGGVQFDYSVLPDAHFGARGVPQSQTEDVLEKWATETGVDIRRGWELRELTDDGSGVTIVADTPDGTRQLRAAYLVGCDGGQSTVRKLVGFEFEGTPATRGMYLADVVGCALRPRFLGEKLANGMVMAAPLAEGVDRIIVCEHGTPPTERERQVSFEEVAAAWERITGESISHGGSLWVSSFTDATRQATEYRRGRVLLAGDAAHIHLPAAGQGLSVGVQDAANLGWKLAAVVRGHAPEGLLDTYHDERHPVGARLLLNTRVQNAVFLGGEEAEPLRTLFTELISYDTVGRHLAGMVSGLEVRYDVGAGDHPLLGRRLPPRALHGAAGATTTTELLHPATGVLLDLTDDAGLRAVAAGYGDRVAVTVATSDAAEFAGVPALLVRPDGYVAWVGAEPDGLAAALRRWFGEPAPAGQ
notes: expressed from pCSG5102 (previously constructed), E. coli BL21(DE3); purified similarly to FlsO1
As a reminder, the Km is the concentration of substrate that gives half-maximal velocity. For the protein B1, the Km (0.25 μM enzyme) came out at 143.2 µM.

B2: FlsO1 (Micromonospora rosaria) (protein)
chain: MNTIDAEVIIVGAGPTGLMLAGELRLNNVSTIVLDRLAEPMQQSRALGFSARTIEEFDQRGLLARFGEVGTIPFGHFGGVPLDYRVIKGGSYGARGIPQSRTEGMLAQRAVELGAELRRGQEVVSIDDDGTGVAVVVRTADGEQTLRAKYLVGADGARSTVRKAAGIDFPGTDPTMEMWLADVAGCDLRLRFSGELVPGGMVMVLPLGPVAQRVVVFEHATGLRNSTEPPTFAEVADAFERLTGEDIRGGKPLWVSWFTDSSRQAAEYRRGRILLAGDAAHIHMPIGGQGMSAGIQDAVNLGWKLAAEIHGHAPEGLLDTYHTERHPVDGRVVMNTLAQRWLYLGGEAMQPLRELLGELVRYPDVQEHLVGMVTGLDIRYDVGAGEHPLLGRRIPNQELVGEFDGSGKSTTFEQLHRGRGVLFAFGDDTAGPQAATGWTDRVDVVRATPHTADPDDPFHGLDAVLVRPDGYVAWVAPAGAGAAGLDEALSRWFGPSR
notes: (His)6-tagged, pET28a (pCSG5205), E. coli BL21(DE3); Ni-NTA; homodimer; crystals from Q108G/R109G surface mutant
Consider B2, for which the Km (0.5 μM enzyme) was determined as 253.4 µM.

The values above are taken from paper PMC9474520, “Biochemical and structural insights of multifunctional flavin-dependent monooxygenase FlsO1-catalyzed unexpected xanthone formation” (Nature Communications, 2022).
